According to patent US20090181003A1, “Regulation of S6 Kinsase Protein Activity and Related Methods” (priority 2005, published 2009):

Tests used:
S6K2 = target: T1, S6K2 (Homo sapiens, UniProt Q9UBS0); assay: In vitro GST pulldown of p300 GST-fusion fragments with recombinant S6K2; type: binding; conditions: GST fusion proteins on glutathione beads, highly purified recombinant S6K2
T1 construct: made in house; GST-p300 fragments: bacteria
Description: In FIG. 1A, S6K1 and S6K2 were immunoprecipitated from MCF-7 cells using polyclonal antibodies or pre-immune serum control. Co-immunoprecipitated p300 was detected by western blotting with specific antibody. In FIG. 1B, 293 cells were cotransfected with either EE-S6K1 and Gal4-p300 or empty vector and Gal4-p300. S6K1 was immunoprecipitated using anti-EE antibody and associated p300 was detected by western blotting with anti-Gal4 antibody. Input: approximately ten percent of soluble lysate. In FIG. 1C, NIH-3T3 cells were transfected with empty vector or EE-S6K2. Anti-EE immunoprecipitates were subjected to western blotting with anti-p300 antibody. Input: approximately one percent of soluble lysate. […] Endogenous S6K1 and S6K2 were immunoprecipitated from MCF-7 cells using polyclonal antibodies. Associated P/CAF was detected by western blotting with polyclonal antibodies (Upstate). In FIG. 1E, the full length p300 was used to produce several GST-fusion fragments as shown (Hasan et al. (2001) Mol. Cell. 7, 1221-1231). Expressed fusion proteins were coupled to glutathione beads and used in an in vitro GST pulldown assay with recombinant S6K2. After extensive washing, bound S6K2 was detected by western blotting. […]

recombinant S6K1 = assay: In vitro acetylation with 14C labelled acetyl coenzyme A, S6K1; type: biochemical; conditions: 1 μg recombinant S6K1, HAT buffer with 14C AcCoA
Procedure: (§1) In FIG. 2A, recombinant S6 kinases were acetylated in vitro using the purified acetyltransferase domain of p300 or full length PCAF and ^14C-labelled acetyl CoA. Proteins were resolved by SDS-PAGE and acetylated proteins were analysed by phosphorimaging (Bio-rad). In FIG. 2B, recombinant S6K2 or GST were subject to in vitro acetylation reactions with p300 and 14C AcCoA. Recombinant PKB/Akt, PKCa, PDK1 and PI3K (p85a/p110a) were purified using baculovirus expression system. In vitro acetylation assay was carried out as previously described. In FIG. 2D, HEK 293 cells were transfected with S6 kinases in the absence or presence of Gal4-p300 as shown. Cells were treated with medium containing either solvent control or TSA to a final concentration of 660 nM for twelve hours prior to harvesting. Recombinant S6 kinases were immunoprecipitated using the EE-antibody and acetylated S6 kinase was detected by western blotting with polyclonal acetylated lysine antibodies (Upstate). The level of immunoprecipitated S6K1 and S6K2 was analysed by reprobing the membranes with specific antibodies. The expression of Gal4-p300 was tested in total lysates using anti-Gal4 antibodies.
(§2) Since S6Ks can interact with a region within, or adjacent to the acetyltransferase domain of p300 we hypothesized that they may in fact be targeted by its enzymatic activity. […] We detected weak, but reproducible acetylation of PKCa.

recombinant S6K2 = assay: In vitro acetylation with 14C labelled acetyl coenzyme A, S6K2; type: biochemical; conditions: 1 μg recombinant S6K2, HAT buffer with 14C AcCoA
Procedure: as §1, §2

T1 sequence (Q9UBS0 with tags, fused parts or gaps A420V): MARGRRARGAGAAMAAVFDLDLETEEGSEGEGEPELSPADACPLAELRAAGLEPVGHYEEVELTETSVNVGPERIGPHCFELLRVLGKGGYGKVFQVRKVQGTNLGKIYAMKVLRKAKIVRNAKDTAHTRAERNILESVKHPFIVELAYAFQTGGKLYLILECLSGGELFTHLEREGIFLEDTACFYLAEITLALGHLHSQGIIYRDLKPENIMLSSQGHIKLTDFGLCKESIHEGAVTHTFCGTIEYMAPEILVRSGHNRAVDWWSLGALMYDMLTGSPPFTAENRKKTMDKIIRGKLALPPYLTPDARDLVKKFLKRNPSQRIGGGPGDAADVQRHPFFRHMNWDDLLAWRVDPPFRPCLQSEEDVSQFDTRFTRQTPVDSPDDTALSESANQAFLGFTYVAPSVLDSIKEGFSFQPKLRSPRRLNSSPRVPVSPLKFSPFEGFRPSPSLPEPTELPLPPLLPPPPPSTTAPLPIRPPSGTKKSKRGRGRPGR

B1: p300 domain 4: active domain of p300 acetyltransferase, amino acid 1,459 to 1,892 (SEQ ID NO: 6), contains part of the acetyltransferase domain (protein, listed as Homo sapiens)
chain: KPKRLQEWYKKMLDKAVSERIVHDYKDIFKQATEDRLTSAKELPYFEGDFWPNVLEESIKELEQEEEERKREENTSNESTDVTKGDSKNAKKKNNKKTSKNKSSLSRGNKKKPGMPNVSNDLSQKLYATMEKHKEVFFVIRLIAGPAANSLPPIVDPDPLIPCDLMDGRDAFLTLARDKHLEFSSLRRAQWSTMCMLVELHTQSQDRFVYTCNECKHHVETRWHCTVCEDYDLCITCYNTKNHDHKMEKLGLGLDDESNNQQAAATQSPGDSRRLSIQRCIQSLVHACQCRNANCSLPSCQKMKRVVQHTKGCKRKTNGGCPICKQLIALCCYHAKHCQENKCPVPFCLNIKQKLRQQQLQHRLQQAQMLRRRMASMQRTGVVGQQQGLPSPTPATPTTPTGQQPTTPQTPQPTSQPQPTPPNSMPPYLPRTQA
modifications: GST fusion partner
binding of S6K2 to p300 domains (S6K2): selective binding | acetylation of S6K1 (14C acetyl incorporation) (recombinant S6K1): acetyl groups were indeed incorporated | acetylation of S6K2 (14C acetyl incorporation) (recombinant S6K2): acetyl groups were indeed incorporated
